Patent publication US9200265B2, “Anti-cocaine compositions and treatment” (priority 2006, dated 2015)
Like-named read-outs stand apart in the source and are kept apart here.

Columns and labels:
[1] = Melting temperature by circular dichroism (near-UV); type: physicochemical
Procedure: Plasmids containing the mutations were transformed into E. coli BL21 cells and IPTG-induced enzyme was purified on Ni-Agarose. Expressed proteins were then tested for enzymatic activity and for thermostability at 37° C. Enzyme activity was measured using the spectrophotometric assay as described in Example 1. Thermostability was also tested via the spectrophotometric assay by pre-incubation of both wild-type and mutants at 37° C. for various times. Additionally, the nature of the thermo-instability of both the wild-type and T172R mutant was analyzed by polyacrylamide gel electrophoresis under denaturing and non-denaturing conditions. Briefly, mutant and wild-type enzyme at 0.1 mg/ml were incubated at 37° C. for various time-points, cooled to 4° C., mixed with SDS-loading dye containing-mercaptoethanol and run on 10% SDS-PAGE gels (denaturing conditions) or run on native 10% polyacrylamide gels (non-denaturing conditions) at 4° C. Gels were fixed with 10% methanol, 7% acetic acid for 30 minutes, and then stained with Sypro-Ruby protein gel stain (Molecular Probes, Invitrogen) for 3 hours. Protein staining was visualized under UV-light using an AlphaImager™ 3400 (Alpha Innotech). Finally, the exact melting temperature of both the wild-type and T172R mutant were determined by circular dichroism using a JASCO-810 spectropolarimeter driven by a JASCO V500/FP-750 analysis program for Windows. The CD spectra were measured in millidegrees and normalized against PBS buffer.

[2] = Low-UV CD spectra melt with CCA deconvolution; type: physicochemical; conditions: for #3 formation: accumulation of the fully melted protein; for #1 melt: initial spectra melts, 0.2 mg/ml; for #2 melt: melt of the intermediate state
Procedure: Low-UV CD spectra data were obtained using an Aviv Spectropolarimeter Mode 400, with the help of Norma Greenfield, UMDNJ, using a 5-cell holder and 0.2 mg/ml protein concentrations. Raw data values obtained were blanked on control PBS, smoothed, and deconvoluted using the CCA algorithm as described by A. Perczel, K. Park, and G. D. Fasman, [Analysis of the circular dichroism spectrum of proteins using the convex constraint algorithm: a practical guide. Analytical Biochemistry 203, 83-93 (1992).] This algorithm finds the minimum number of curves needed to reconstruct a data set, and expresses the percentage each curve contributes to the data set as a function of temperature.
Below is presented a low UV CCA denconvolution analysis of CocE WT and 4 mutants, obtained in a single CD spectra melt using a 5-cell holder. The experiment was performed over the period of 8 hours, from 0-80° C.
Temperature dependent melting was observed between the wavelengths tested (200-250 nm), and the smoothed spectra for each mutant are shown in FIG. 29. […] Dose response analysis was used to approximate the temperature at which the initial spectra melts (1), the formation and melt of the intermediate state (2), and the accumulation of the fully melted protein (3).

[3] = system: cocaine-induced lethality; assay: Cocaine toxicity in mice, incl. repeated CocE doses; type: in vivo, mouse
From the text: The animal toxicity model was similar to that described previously, except as described. Male NIH Swiss mice were used. For tail intravenous injection, mice are placed in a small restraint chamber that exposes their tail. A heat lamp with an infrared, 250 w bulb is placed about 4 inches from the tail, and left for a couple of minutes. The tail is then cleansed with an alcohol wipe and a 30 G ½ precision glide needle (Fisher Scientific), is inserted into one of the side veins for infusion. To verify whether the needle is in the vein a small amount of drug is infused, if in the correct location the solution should infuse easily without any indication of an incorrect subcutaneous location, which appears white at the site of injection. For intravenous catheterization, Male NIH Swiss mice are anesthetized with ketamine 100 mg/kg and xylazine 10 mg/kg co-administered i.p. When mice are no longer responsive to paw pressure, the neck is shaved and prepped by alternating Betadine and alcohol wipes. Under clean conditions, a right transverse neck incision is made and the external jugular vein is isolated. A catheter is inserted into the vein with the aid of a dissecting microscope to the level of the right atrium, and is secured in the vein with nylon, 4-0 sutures and tissue adhesive, 3M Vetbond (3M Animal Care Products, St. Paul, Minn.). The catheters are a short length of Tygon tubing with an inner diameter of 0.010 in. and an outer diameter of 0.030 in. (Small Parts, Inc., Miami Lakes, Fla.). A small incision is made in the middle of the animal's back, and a trocar inserted subcutaneously to exit at the ventral incision site. The catheter is then pulled through the trocar and brought out the animal's back where it is held in place with nylon suture material and the tissue adhesive. A short piece of steel wire with a diameter of 0.011 in. (Small Parts, Inc., Miami Lakes, Fla.) is inserted into the end of the catheter. The ventral incision is closed with 4-0 Vicryl suture material and the mouse placed under a heat lamp for recovery. Approximately an hour later, the mouse is returned to its home cage.
Mice that survived a first administration of the combination of 0.32 mg CocE and 320 mg/kg cocaine were given this combination again, 14 days following the initial administration.

[4] = Half-life of CocE in rat plasma; type: in vitro ADME
Procedure: CocE's protective effects were eliminated when rats were treated 100 min prior to cocaine. This time-dependent effect is most likely due to the thermal deactivation of the enzyme in vivo.

[5] = Decay of CocE activity in plasma at 37° C. or after intravenous administration into a mouse; type: in vitro ADME; conditions: incubation in plasma at 37° C., or after intravenous administration into a mouse
[6] = cocaethylene; cited from earlier work
[7] = system: WIN 35065-2 induced toxicity; assay: WIN 35065-2 induced lethality in rats; conditions: 1.0 mg CocE i.v. one minute after 560 mg/kg WIN-35065-2 i.p.
[8] = Cocaine spectrophotometric assay (240 nm), Michaelis-Menten kinetics
[9] = system: cocaine-induced lethality; assay: Rodent model of acute cocaine toxicity (convulsions and lethality) in rats; conditions: for protection against cocaine-induced lethality: one minute before 180 mg/kg cocaine
[10] = Time-dependent inactivation of CocE in vitro (incubation at temperature, then activity)
Procedure: For time-dependent inactivation of CocE in vitro, purified CocE enzyme (at 250 ng/ml) was incubated in assay buffer in the absence of cocaine at 37° C. for various times. Following incubation at 37° C. the samples were placed on ice. To assess the effect of temperature on CocE activity, samples were incubated with (−) cocaine at various concentrations as indicated at a final enzyme concentration of 125 ng/ml. The rate of decay of (−)-cocaine at A240 was measured on a multiplate reader.

[11] = purified wild-type, cocaine, PBS pH 7.4
[12] = 1.0 mg i.v. one minute after cocaine i.p., rats

B1: CocE: wild-type cocaine esterase of Rhodococcus sp. MB 1, SEQ ID NO: 1, Accession No. AF173165 (protein)
chain: MVDGNYSVASNVMVPMRDGVRLAVDLYRPDADGPVPVLLVRNPYDKFDVFAWSTQSTNWLEFVRDGYAVVIQDTRGLFASEGEFVPHVDDEADAEDTLSWILEQAWCDGNVGMFGVSYLGVTQWQAAVSGVGGLKAIAPSMASADLYRAPWYGPGGALSVEALLGWSALIGTGLITSRSDARPEDAADFVQLAAILNDVAGAASVTPLAEQPLLGRLIPWVIDQVVDHPDNDESWQSISLFERLGGLATPALITAGWYDGFVGESLRTFVAVKDNADARLVVGPWSHSNLTGRNADRKFGIAATYPIQEATTMHKAFFDRHLRGETDALAGVPKVRLFVMGIDEWRDETDWPLPDTAYTPFYLGGSGAANTSTGGGTLSTSISGTESADTYLYDPADPVPSLGGTLLFHNGDNGPADQRPIHDRDDVLCYSTEVLTDPVEVTGTVSARLFVSSSAVDTDFTAKLVDVFPDGRAIALCDGIVRMRYRETLVNPTLIEAGEIYEVAIDMLATSNVFLPGHRIMVQVSSSNFPKYDRNSNTGGVIAREQLEEMCTAVNRIHRGPEHPSHIVLPIIKR
modifications: Rhodococcus sp. MB1
detectable denaturation beginning ([1]; near-UV CD): approximately 30 °C
melting temperature ([1]; near-UV CD (260-320 nm), curve-fitting): 36.15 °C
#3 formation [2]: 59 °C
#3 formation ([2]; listed as WT): 59.86 °C
#2 formation ([2]; formation of the intermediate state): 34.57 °C
#1 melt [2]: 37 °C
#1 melt ([2]; listed as WT): 37.04 °C
#2 melt [2]: 50 °C
#2 melt ([2]; listed as WT): 50.98 °C
survival on second administration ([3]; 0.32 mg CocE and 320 mg/kg cocaine, 14 days following the initial administration): All of the mice survived
survival on third administration ([3]; 0.32 mg CocE and 320 mg/kg cocaine, 21 days following the first dose): All mice also survived
time to death (average) ([3]; 1.0 gm/kg cocaine plus 1.0 mg of CocE, mice): 28 min
shift in the potency of cocaine in producing death ([3]; both 0.32 and 1.O 'mg/kg cocaine' as printed, mice): dramatic shift to the right
half-life [4]: about 10 minutes
decay of CocE activity [5]: > 50%
Kcat [6]: 9.4 s⁻¹
Km [6]: 1.6 µM
lethal effect of WIN 35065-2 under treatment with CocE [7]: not overcome
Km ([8]; 40 min @ 37° C.): 12.3 µM
Km ([8]; no preincubation): 71.8 µM
Kcat [8, 11]: approx. 500 min^−1
Km [8, 11]: ~2 µM
protection against cocaine-induced lethality ([9]; 0.1 mg): no protection
lethality ([9]; 0.32 mg i.v. one minute after 1 g/kg cocaine i.p., rats): 100%
rats saved ([9]; 1 mg CocE 1 minute before cocaine (100 mg/kg)): 100%
rats survived ([9]; 1 mg CocE 30 minutes before cocaine (100 mg/kg)): 66%
protective effects ([9]; 1 mg CocE 100 min prior to cocaine): eliminated
rats survived ([9]; 1 mg CocE '1 minutes' before cocaine as printed (100 mg/kg)): 32%
time after the LD100 dose of cocaine at which the enzyme provided protection ([9]; 1 mg CocE, 100 mg/kg cocaine): up to 6 minutes
cocaine dose required to surmount the protective properties [9, 12]: 1000 mg/kg
shift in the cocaine-toxicity dose effect curve [9, 12]: ten-fold shift
protection against cocaine-induced lethality ([9]; 1 mg): 100%
duration of anti-cocaine effect ([9]; preliminary studies in rats): more than 30 minutes
t1/2 of CocE ([10]; at 4° C.): greater than 6 months
t1/2 of CocE ([10]; at 37° C.): approximately 15 minutes
